Assay results: the nanobody polyreactivity screen of Harvey et al. (2022)

assay: yeast display, Sf9 membrane polyspecificity reagent, FACS + sequencing; frameworks hold sequencing errors
Method in brief: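 Polyreactivity labels are assigned by the sorting gate from which each nanobody was recovered. The gates were low and high (top ~1%), set on anti-HA fluorescence for expression and streptavidin fluorescence for reagent binding. Before sorting, galactose-induced (36–48 hours) yeast display cells were stained for 1 hour at 4 °C with 10% biotinylated, detergent-solubilized Sf9 membrane reagent.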

Row | Sequence | polyreactivity (PSR sort gate)
1 | QVQLVESGGGLVQAGGSLRLSCAASGIIFEPNAMGWYRQAPGKERELVAAIDSGGITYYADSVKGRFTISRDNAKNTVYLEMNSLKPEDTAVYYCAKRAYTRQYWYGYGYWGQGTQVTVSS | high polyreactivity
2 | QVQLVESGGGLVQAGGSLRLSCAASGIIFFSNTMVGYRQAPGKDREFVAAITWSTGNTYYADSVKGRFTISRDNAKNTVYLQMNSLKTEDTAVYYCYAEYLVITLYGGVEFDYWGQGTQVTVSS | low polyreactivity
3 | QVQLVESGGGLVQAGGSLRLSCAASGIIFFSYAMGWYRQAPGKERELVAAISGTGGNTYYADSVKGRFTISRDNAKNTVYLQMNSLKPEDTAVYYCAADQEWYYYFDSFAYYILGYWGQGTQVTVSS | high polyreactivity
4 | QVQLVESGGGLVQAGGSLRLSCAASGIIFFWNAMGWYRQAPGKERELVAAISSGGSTYADSVKGRFTISRDNAKNTVYLQMNSLKPEDTAVYYCAARFYHGYRPYSAIYGYGYWGQGTQVTVSS | low polyreactivity
5 | QVQLVESGGGLVQAGGSLRLSCAASGIIFFYYGMGWYIQAPGKERELVARISSGGSTNYADSVKGRFTISRDNAKITVYLQMNSLKQEDTAVYYCAARISTRYGYWGQGTQVTVSS | low polyreactivity
6 | QVQLVESGGGLVQAGGSLRLSCAASGIIFFYYVMGWYRQAPGKERELVAAISSDGSSTYYADSVKGRFTISRDNAKNTVNLQMNSQKPEDTAVYYCAAELILYPYDFNFWGQGTQVTVSS | high polyreactivity
7 | QVQLVESGGGLVQAGGSLRLSCAASGIIFGDYAMGWYRQAPGKEMELVAAITWSGGSTYYADSVKGRFTISRDNAKNTVYLQMNSLKPEDTAFYYCNADDDGRVSSTIVEYWGQGTQVTVSS | low polyreactivity
8 | QVQLVESGGGLVQAGGSLRLSCAASGIIFGFNTMGWYRQAPGKERELVAVITWSGGSTYYADSVKGRFTISRVFAKNTVYLQMNCLNPDDTAVYYCATVRAVEYNYWGQGTQVTVSS | low polyreactivity
9 | QVQLVESGGGLVQAGGSLRLSCAASGIIFGFYAMGWYRQAPGKERELVAAITIDGSTYYADSVKGRFTISRDNAKTTVYLQMNILKPEDTAVYYCGAQYLNVYYWEDYLGQGTQVTVSS | low polyreactivity
10 | QVQLVESGGGLVQAGGSLRLSCAASGIIFGIYAMGWYRQAPGKEREFVAAISWSDGSTRYADSVKGRFTISRDNAKNTVYLQMNCLKPEDTAVYYCNTDIGPLDFGEYSYPDDYWGQGTQVTVSS | low polyreactivity
11 | QVQLVESGGGLVQAGGSLRLSCAASGIIFGIYDMGWYRQAPGKERELVAAIRRSGGSTYYADSVKGRFTISRDNAKNTVYLQMNSLKPEDTAVYYCAATRHSRVRGGDYWGQGTQVTVSS | low polyreactivity
12 | QVQLVESGGGLVQAGGSLRLSCAASGIIFGLYTMGWYRQAPGKERELVAAISDSGGRTYYADSVKGRFTISRDNAKNTVYLQMNSLKPEDTAVYYCAAEFWYVLEYNYWGQGTQVTVSS | high polyreactivity
13 | QVQLVESGGGLVQAGGSLRLSCAASGIIFGNYAMGWYRQAPGKERELVAAITNGSSTNYADSVKGRFTISRDNAKNTVYLQMNSLKPEDTAVYYCARDGIGADGYDYWGQGTQVTVSS | low polyreactivity
14 | QVQLVESGGGLVQAGGSLRLSCAASGIIFGNYAMGWYRQEPGKERELVATITWRGGSTYYADSVKGRFTISRDNAKNTVYLQMISLKPEDTAVYYCARPYASYRSFYYYGYWGQGTQVTVSS | high polyreactivity
15 | QVQLVESGGGLVQAGGSLRLSCAASGIIFGRYAMGWYRQAPGKEREFVAAIRSRGGSTYYADSVKGRFTISRDNAKNTVYLQMNSLKPEDTAVYYCNAGHIYAGYRREYDYWGQGTQVTVSS | high polyreactivity
16 | QVQLVESGGGLVQAGGSLRLSCAASGIIFGTNAMGWYRQAPGKERELVASITSDGSTYYADSVKGRFTISRDNAKNTVYLQMNSLKPEDTAVYYCAADHYWADGVYLYDTYEYGYWGQGTQVTVSS | low polyreactivity
17 | QVQLVESGGGLVQAGGSLRLSCAASGIIFGTYAMGWYRQAPGKERELVAAISSGGRTYYADSVKGRFTISRDNAKNTVYLQMNSLKPEDTAVYYCNRPPWSRGSNYWGQGTQVTVSS | high polyreactivity
18 | QVQLVESGGGLVQAGGSLRLSCAASGIIFGVYAMGWYRQAPGKERELVASIRYSSVRTYYADSVKGRFTISRDNAKNTVYLQMNSLKPEDTAVYYCAKYYVWPRYGYWGQGTQVTVSS | high polyreactivity
19 | QVQLVESGGGLVQAGGSLRLSCAASGIIFGVYAMGWYRQAPGQERELVAAIDGNGSSTYYADSVKGRFTISRDNAKNTVYLQMNSLKPEDTAVYYCAAGYWSYLYYWYDFDYWGQGTQVTVSS | low polyreactivity
20 | QVQLVESGGGLVQAGGSLRLSCAASGIIFGWYAMGWYRQAPGKERELVADISSDDSTYYADSVKGRFTISRDNAKNTVYLQMNSLKPEDTAVYYCAADTSYGSYWSLYYYNYYWGQGTQVTVSS | high polyreactivity
21 | QVQLVESGGGLVQAGGSLRLSCAASGIIFGYNVMGWYRQAPGKERELVAAISGSGSSTYYADSVKGRFTISRDNAKITVYLQMNSLKPEDTAVYYCAARRYSTKRWRMYYWGQGTQVTVSS | high polyreactivity
22 | QVQLVESGGGLVQAGGSLRLSCAASGIIFHRYAMGWYRQAPGKERELVAAISWNGGSTYYADSVKGRFTISRDNAKNTVYLQMNSLKPEDTAVYYCAARKLYSNISGYWGQGTLVTVSS | high polyreactivity

Row | Sequence | polyreactivity (PSR sort gate)
23 | QVQLVESGGGLVQAGGSLRLSCAASGIIFHVYAMGWYRQAPGKERELVAAISDDGSTNYADSVKGRFTISRDNAKNTVYLQMNSLKPEDTAVYYCAKESWGRLYYRYDYWGQGTQVTVSA | low polyreactivity
24 | QVQLVESGGGLVQAGGSLRLSCAASGIIFHYYAMGWSRPEPGKERELVAAITSSGDRTYYADSVKGRFTISRDTAKNTVYLQMNSLKPEDTAVYYCAKDVWRWFGYWGQGTQVTVSS | high polyreactivity
25 | QVQLVESGGGLVQAGGSLRLSCAASGIIFHYYAMGWYRQAPGKEREFVASISFSGASTYYADSVKGRFTISRDNAKNTVYLQMNSLKPEDTAVYYCAARYLYGPKYYYCGQGTQVTVSS | high polyreactivity
26 | QVQLVESGGGLVQAGGSLRLSCAASGIIFIFYDMGWSRQAPGKERELVATITSGTNTYADSVKGRFTISRDNAKNTVYLQMNSLKPEDTAVYSCAAGFSPASQLDYWGQGTQVTVSS | low polyreactivity
27 | QVQLVESGGGLVQAGGSLRLSCAASGIIFIGNAMGWYRQAPGKERELVAAISRRGGRTYYADSVKGRFTISRDNAKNTVYLQMNSLKPEDTAVYYCNAEITVNDDDYWGQGTQVTVSS | low polyreactivity
28 | QVQLVESGGGLVQAGGSLRLSCAASGIIFIGYAMGWYSQAPGKERELVAAISTRGSTTNYADSVKGRFTISRDNAKNTVYLQMNSLKPEDTAVYYCAARKYPSYRYPTGDYWGQGTQVTVSS | high polyreactivity
29 | QVQLVESGGGLVQAGGSLRLSCAASGIIFITNAMGWYRQAPGKERDLVAVISFSGGGTYADSVKGRFTISRDNAKNTVYLQMNSLTPEDTAVYYCAKYWLSALTLEDDYWGQGTQVTVSS | low polyreactivity
30 | QVQLVESGGGLVQAGGSLRLSCAASGIIFIVNAMGWYRQAPGKERELVAAISNGGSTNYADSVKGRFTISRDNAKNTVYLQMNSLKPEDTAVYYCADDYSTWLRAYDYWGQGTQVTVSS | low polyreactivity
31 | QVQLVESGGGLVQAGGSLRLSCAASGIIFKGYDMGWYRQAPGKERELVAAISSGSTNYADSVKGRFTISRDNAKNTVYLQMNSLKPEDTAVYYCAAYNDTVPSAAHIYESWGQGTQVTVSS | low polyreactivity
32 | QVQLVESGGGLVQAGGSLRLSCAASGIIFKRYAMGWYRQAPGKERELVATITRDGRTSYADSVKGRFTISRDNAKNTVYLQMNSLKPEDTAVYYCNKRGTYAPPTPGNLFDYWGQGTQVTVSS | low polyreactivity
33 | QVQLVESGGGLVQAGGSLRLSCAASGIIFKWYGMGGYRQAPGKERELVAGITWRTGSTYYADSVKGRFTISRDNAKNTVYLQMNSLKPEDTAVYYCAARLYTYPKGKYWGQGTQVTVSS | high polyreactivity
34 | QVQLVESGGGLVQAGGSLRLSCAASGIIFLDNAMVWYRQAPGKERELVAAITTGGITYYADSVKGRFTISRDNAKNTVYLQMNSLKPEDTAVYYCAADNEWPRYDYWGQGTQVTVSS | low polyreactivity
35 | QVQLVESGGGLVQAGGSLRLSCAASGIIFLENAMGWYRQAPGKERELVAGISSGGNTNYADSVKGRFTISRDNAKNTVYLQMNSLKPEDTAVYYCNTDWYLPRYVLLGYFSGTEDYWGQGTQVTVSS | low polyreactivity
36 | QVQLVESGGGLVQAGGSLRLSCAASGIIFLNYAMGWYRQAPGKERELVAAITTSGGNTYYADSVKGRFTISRDNAKNTVYLQMNSLKPEDTAVYYCAATDLYFWYPYWFAFEYDYWGQGTQVTVSS | high polyreactivity
37 | QVQLVESGGGLVQAGGSLRLSCAASGIIFLWYAMGWYRQAPGKERELVAAISRTGSSTYYADSVKGRFTISRDNAKNTVYLQMNSLKPEDTAVYYCAAAYYSKRSWRFDYWGQGTQVTVSS | high polyreactivity
38 | QVQLVESGGGLVQAGGSLRLSCAASGIIFLYYAMGWYRQAPGKERELVAAISSGGSTYYADSVKGRFTISRDNAKNTFYLQLNSLKPEDTAVYYCAVGRVGRFYYWGQGTQVSVSS | high polyreactivity
39 | QVQLVESGGGLVQAGGSLRLSCAASGIIFNGNTMGWYRQAPGKERELVAAITSGGTTSYADSVKGRFTISRDNAKNTVYLQMNSLKPADTAVYYCAADHPAFGPGYSFDYWGQGTQVTVSS | low polyreactivity
40 | QVQLVESGGGLVQAGGSLRLSCAASGIIFNSYAMGWYRQAPGKERELVATISGSGGSTYYADSVKGRFTISRDNAKNTVYFQMNSLKPEDTAVYSCAARTGRYYRRYDYWGQGTQVTVSS | high polyreactivity
41 | QVQLVESGGGLVQAGGSLRLSCAASGIIFNYYAMGWYRQAPGKERELVAAISASGGSTYYADSVKGRFTISRDNAKNTVYLQMNSLKPEDTAVYYCNAAVLYRQYGRGDYWGQGTQVTVSS | low polyreactivity
42 | QVQLVESGGGLVQAGGSLRLSCAASGIIFNYYAMGWYRQAPGKERELVAAISFSGGRTYYADSVKGRFTISRDNAKNTVYLQMNCLKPEDTAVYYCNAVYRNSILAFPGEYDYWGQGTQVTVSS | high polyreactivity
43 | QVQLVESGGGLVQAGGSLRLSCAASGIIFPAYAMGWYRQEPGKDRELVAAISKRGGSTYYADSVKGRFTISRDNAKNTVYLQMNSLKPEDTAVYYCNVLLTQGATVGEYGYWGQGTQVTVSS | high polyreactivity
